# Laboratory results taken from US20140271478A1 (University of California, published 2014).
# T1: mouse integrin β8 (mouse, UniProt Q0VBD0 22-767)
# T1 construct: whole, on cells; also called mouse β8; itgb8
# T1 sequence (looked up): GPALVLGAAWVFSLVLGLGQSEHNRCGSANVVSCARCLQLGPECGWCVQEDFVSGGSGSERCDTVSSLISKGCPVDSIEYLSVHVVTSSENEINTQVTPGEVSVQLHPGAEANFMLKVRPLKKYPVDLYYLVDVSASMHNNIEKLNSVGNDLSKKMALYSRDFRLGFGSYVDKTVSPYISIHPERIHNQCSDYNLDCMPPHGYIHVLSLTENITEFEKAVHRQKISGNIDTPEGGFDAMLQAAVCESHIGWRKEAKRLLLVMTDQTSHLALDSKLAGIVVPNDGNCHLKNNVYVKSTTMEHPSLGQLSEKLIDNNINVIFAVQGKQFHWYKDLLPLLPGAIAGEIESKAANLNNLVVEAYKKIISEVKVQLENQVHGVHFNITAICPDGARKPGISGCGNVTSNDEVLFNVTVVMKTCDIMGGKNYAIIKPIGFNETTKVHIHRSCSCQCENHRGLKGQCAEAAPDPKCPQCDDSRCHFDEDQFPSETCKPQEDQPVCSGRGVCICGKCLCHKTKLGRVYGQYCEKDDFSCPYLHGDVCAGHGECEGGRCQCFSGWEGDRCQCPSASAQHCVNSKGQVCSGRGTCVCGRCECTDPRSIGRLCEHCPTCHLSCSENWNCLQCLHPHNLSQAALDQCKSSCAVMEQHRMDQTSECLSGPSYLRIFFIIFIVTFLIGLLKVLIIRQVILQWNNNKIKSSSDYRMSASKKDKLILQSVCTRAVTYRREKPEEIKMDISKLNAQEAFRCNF
# What was measured:
# mouse integrin β8 [1] = biological target: T1, mouse integrin β8; experiment: cell staining of β8 amino acid swap constructs (175-180)
# mouse integrin β8 [2] = biological target: T1, mouse integrin β8; experiment: cell surface staining, flow cytometry
Binder,% positive (mouse integrin β8 [1]) [%],binding result (mouse integrin β8 [2])
"37E1B5 antibody (antibody, V domains shown) VH: EVQLVESGGGLVQPGGSLNLSCAVSGFVFSRYWMSWVRQAPGKGLEWIGEINPDSSTINYTSSLKDKFIISRDNAKNTLYLQMNKVRSEDTALYYCACLITTEDYWGQGTSVTVSS VL: QIVLTQSPSSMYASLGERVTIPCKASQDINSYLSWFQQKPGKSPKTLIYYANRLVDGVPSRFSGSGSGQDYSLTISSLEYEDMGIYYCLQYDEFPYTFGGGTKLEIK",0,–
"14E5 antibody (antibody, V domains shown, Mouse hybridoma antibody; also called hybridoma clone 14E5) VH: EVQLQQSGAELMKPGASVKISCKATGYTFSTYWIEWIKQRPGHGLEWIGHILPGSVITNYNEKFKGKAAITADTSSNTSYMQLSSLTSEDSAVYYCARWGWDSYWGQGTLVTVSS VL: DIEMTQSPSSLSASLGDRVTISCSTSQDISSSLNWYQQKPDGTVTLLIYYTSNLHSGVPSRFSGSGSGTDYSLTISNLEPEDIATYYCQQYSKLPYTFGGGTKLEIKR",0,no binding
"11E8 antibody (antibody, V domains shown, Mouse hybridoma antibody) VH: EVQLQQSGPELMKTGASVKISCKATGYTFSSYWIEWVKQRPGHGLEWIGDILPGSGTTNYNEKFKGRATVTADRSSNTAYMQLSSLTYGDSAVYYCATWGWDTYWDQGTSVTVSS VL: DIVMTQSPSSLSASLGDRVTISCSASQGISNYLNWYQQKPDGTVKLLIYYTSSLHSGVPSRFSGSGSGTDYSLTISNLEPEDIATYYCQQYSNLPYTFGGGTKLEIKR",0,no binding
